The term Kd denotes the free concentration of one partner at which half of the binding sites on the other are occupied at equilibrium, for simple one-to-one binding. Read a low Kd as higher affinity.

The values that follow come from article PMC10786891, “Massively parallel profiling of RNA-targeting CRISPR-Cas13d”.

Sequences and labels used below:
T1: EsCas13d, nuclease-dead (Eubacterium siraeum, UniProt B0MS50, R295A;H300A;R849A;H854A)
T1 sequence: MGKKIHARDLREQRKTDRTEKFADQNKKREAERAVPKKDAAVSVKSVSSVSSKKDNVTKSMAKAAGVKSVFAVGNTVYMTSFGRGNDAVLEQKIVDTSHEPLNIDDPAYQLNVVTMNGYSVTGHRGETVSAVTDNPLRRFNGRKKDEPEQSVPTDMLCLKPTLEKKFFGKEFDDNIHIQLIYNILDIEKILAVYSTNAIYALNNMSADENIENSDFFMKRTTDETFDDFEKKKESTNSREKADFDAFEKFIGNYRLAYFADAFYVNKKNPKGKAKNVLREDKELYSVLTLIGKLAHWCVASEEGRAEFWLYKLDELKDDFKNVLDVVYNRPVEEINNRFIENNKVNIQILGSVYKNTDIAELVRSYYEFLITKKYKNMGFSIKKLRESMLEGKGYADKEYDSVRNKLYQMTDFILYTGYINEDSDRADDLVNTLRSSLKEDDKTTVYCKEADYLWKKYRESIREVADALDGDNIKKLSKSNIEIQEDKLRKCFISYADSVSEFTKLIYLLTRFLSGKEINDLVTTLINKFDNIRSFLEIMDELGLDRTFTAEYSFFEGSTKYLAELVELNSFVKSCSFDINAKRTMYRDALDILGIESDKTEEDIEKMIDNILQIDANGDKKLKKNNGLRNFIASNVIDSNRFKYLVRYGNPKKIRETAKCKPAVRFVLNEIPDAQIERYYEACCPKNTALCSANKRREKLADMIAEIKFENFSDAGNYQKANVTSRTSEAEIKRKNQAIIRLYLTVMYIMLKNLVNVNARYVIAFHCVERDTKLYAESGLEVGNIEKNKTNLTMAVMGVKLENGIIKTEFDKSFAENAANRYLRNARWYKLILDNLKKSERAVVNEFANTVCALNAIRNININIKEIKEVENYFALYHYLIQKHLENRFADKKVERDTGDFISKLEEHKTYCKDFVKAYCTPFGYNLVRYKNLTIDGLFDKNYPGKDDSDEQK

B1: target 3 insU 3' of 14,insA 3' of 3 (mixed)
RNA 1: CACCCGUGCAAAAUUGCAGGGGUCUAAAACGACCUGAAUAUUUCAGAUCAAA
RNA 2: GGGAAUGGAUCCACAUCUACGAAUUCGUUUUUGAUCUGUAAAUAUUCAGGAUCUGCAGAUCGGAAGAGCACACGU
B2: target 3 insA 3' of 14 (mixed)
RNA 1: CACCCGUGCAAAAUUGCAGGGGUCUAAAACGACCUGAAUAUUUCAGAUCAAA
RNA 2: GGGAAUGGAUCCACAUCUACGAAUUCGUUUUUGAUCUGAAAAUAUUCAGGUCUGCAGAUCGGAAGAGCACACGU
B3: target 3 C6A,U22C (mixed)
RNA 1: CACCCGUGCAAAAUUGCAGGGGUCUAAAACGACCUGAAUAUUUCAGAUCAAA
RNA 2: GGGAAUGGAUCCACAUCUACGAAUUCGUUCUUGAUCUGAAAUAUUAAGGUCUGCAGAUCGGAAGAGCACACGU
B4: target 3 U2G,A12G (mixed)
RNA 1: CACCCGUGCAAAAUUGCAGGGGUCUAAAACGACCUGAAUAUUUCAGAUCAAA
RNA 2: GGGAAUGGAUCCACAUCUACGAAUUCGUUUUUGAUCUGAGAUAUUCAGGGCUGCAGAUCGGAAGAGCACACGU
B5: target 3 insU 3' of 5,insU 3' of 1 (mixed)
RNA 1: CACCCGUGCAAAAUUGCAGGGGUCUAAAACGACCUGAAUAUUUCAGAUCAAA
RNA 2: GGGAAUGGAUCCACAUCUACGAAUUCGUUUUUGAUCUGAAAUAUUCAUGGUCUUGCAGAUCGGAAGAGCACACGU
B6: target 3 C1G,C6A (mixed)
RNA 1: CACCCGUGCAAAAUUGCAGGGGUCUAAAACGACCUGAAUAUUUCAGAUCAAA
RNA 2: GGGAAUGGAUCCACAUCUACGAAUUCGUUUUUGAUCUGAAAUAUUAAGGUGUGCAGAUCGGAAGAGCACACGU
B7: target 3 C1A,U22A (mixed)
RNA 1: CACCCGUGCAAAAUUGCAGGGGUCUAAAACGACCUGAAUAUUUCAGAUCAAA
RNA 2: GGGAAUGGAUCCACAUCUACGAAUUCGUUAUUGAUCUGAAAUAUUCAGGUAUGCAGAUCGGAAGAGCACACGU
B8: target 3 insG 3' of 9,insG 3' of 9 (mixed)
RNA 1: CACCCGUGCAAAAUUGCAGGGGUCUAAAACGACCUGAAUAUUUCAGAUCAAA
RNA 2: GGGAAUGGAUCCACAUCUACGAAUUCGUUUUUGAUCUGAAAUAGGUUCAGGUCUGCAGAUCGGAAGAGCACACGU
B9: target 3 insA 3' of 10,insG 3' of 7 (mixed)
RNA 1: CACCCGUGCAAAAUUGCAGGGGUCUAAAACGACCUGAAUAUUUCAGAUCAAA
RNA 2: GGGAAUGGAUCCACAUCUACGAAUUCGUUUUUGAUCUGAAAUAAUUGCAGGUCUGCAGAUCGGAAGAGCACACGU
B10: target 3 insC 3' of 9,insG 3' of 6 (mixed)
RNA 1: CACCCGUGCAAAAUUGCAGGGGUCUAAAACGACCUGAAUAUUUCAGAUCAAA
RNA 2: GGGAAUGGAUCCACAUCUACGAAUUCGUUUUUGAUCUGAAAUACUUCGAGGUCUGCAGAUCGGAAGAGCACACGU
B11: target 3 G4C,C6G (mixed)
RNA 1: CACCCGUGCAAAAUUGCAGGGGUCUAAAACGACCUGAAUAUUUCAGAUCAAA
RNA 2: GGGAAUGGAUCCACAUCUACGAAUUCGUUUUUGAUCUGAAAUAUUGACGUCUGCAGAUCGGAAGAGCACACGU
B12: target 3 A18G,U22C (mixed)
RNA 1: CACCCGUGCAAAAUUGCAGGGGUCUAAAACGACCUGAAUAUUUCAGAUCAAA
RNA 2: GGGAAUGGAUCCACAUCUACGAAUUCGUUCUUGGUCUGAAAUAUUCAGGUCUGCAGAUCGGAAGAGCACACGU
B13: target 3 insA 3' of 8,insG 3' of 5 (mixed)
RNA 1: CACCCGUGCAAAAUUGCAGGGGUCUAAAACGACCUGAAUAUUUCAGAUCAAA
RNA 2: GGGAAUGGAUCCACAUCUACGAAUUCGUUUUUGAUCUGAAAUAUAUCAGGGUCUGCAGAUCGGAAGAGCACACGU
B14: target 3 C1U,C16U (mixed)
RNA 1: CACCCGUGCAAAAUUGCAGGGGUCUAAAACGACCUGAAUAUUUCAGAUCAAA
RNA 2: GGGAAUGGAUCCACAUCUACGAAUUCGUUUUUGAUUUGAAAUAUUCAGGUUUGCAGAUCGGAAGAGCACACGU
B15: target 3 C1G,U8G (mixed)
RNA 1: CACCCGUGCAAAAUUGCAGGGGUCUAAAACGACCUGAAUAUUUCAGAUCAAA
RNA 2: GGGAAUGGAUCCACAUCUACGAAUUCGUUUUUGAUCUGAAAUAGUCAGGUGUGCAGAUCGGAAGAGCACACGU
B16: target 3 A5G,U7G (mixed)
RNA 1: CACCCGUGCAAAAUUGCAGGGGUCUAAAACGACCUGAAUAUUUCAGAUCAAA
RNA 2: GGGAAUGGAUCCACAUCUACGAAUUCGUUUUUGAUCUGAAAUAUGCGGGUCUGCAGAUCGGAAGAGCACACGU
B17: target 3 insG 3' of 7 (mixed)
RNA 1: CACCCGUGCAAAAUUGCAGGGGUCUAAAACGACCUGAAUAUUUCAGAUCAAA
RNA 2: GGGAAUGGAUCCACAUCUACGAAUUCGUUUUUGAUCUGAAAUAUUGCAGGUCUGCAGAUCGGAAGAGCACACGU
B18: target 3 C1G,U22A (mixed)
RNA 1: CACCCGUGCAAAAUUGCAGGGGUCUAAAACGACCUGAAUAUUUCAGAUCAAA
RNA 2: GGGAAUGGAUCCACAUCUACGAAUUCGUUAUUGAUCUGAAAUAUUCAGGUGUGCAGAUCGGAAGAGCACACGU
B19: target 3 U2A,A5C (mixed)
RNA 1: CACCCGUGCAAAAUUGCAGGGGUCUAAAACGACCUGAAUAUUUCAGAUCAAA
RNA 2: GGGAAUGGAUCCACAUCUACGAAUUCGUUUUUGAUCUGAAAUAUUCCGGACUGCAGAUCGGAAGAGCACACGU
B20: target 3 C1U,U22A (mixed)
RNA 1: CACCCGUGCAAAAUUGCAGGGGUCUAAAACGACCUGAAUAUUUCAGAUCAAA
RNA 2: GGGAAUGGAUCCACAUCUACGAAUUCGUUAUUGAUCUGAAAUAUUCAGGUUUGCAGAUCGGAAGAGCACACGU
B21: target 3 C6A (mixed)
RNA 1: CACCCGUGCAAAAUUGCAGGGGUCUAAAACGACCUGAAUAUUUCAGAUCAAA
RNA 2: GGGAAUGGAUCCACAUCUACGAAUUCGUUUUUGAUCUGAAAUAUUAAGGUCUGCAGAUCGGAAGAGCACACGU
B22: target 3 insU 3' of 22,insG 3' of 6 (mixed)
RNA 1: CACCCGUGCAAAAUUGCAGGGGUCUAAAACGACCUGAAUAUUUCAGAUCAAA
RNA 2: GGGAAUGGAUCCACAUCUACGAAUUCGUUUUUUGAUCUGAAAUAUUCGAGGUCUGCAGAUCGGAAGAGCACACGU
B23: target 3 U22A (mixed)
RNA 1: CACCCGUGCAAAAUUGCAGGGGUCUAAAACGACCUGAAUAUUUCAGAUCAAA
RNA 2: GGGAAUGGAUCCACAUCUACGAAUUCGUUAUUGAUCUGAAAUAUUCAGGUCUGCAGAUCGGAAGAGCACACGU
B24: target 3 U2A,G3A (mixed)
RNA 1: CACCCGUGCAAAAUUGCAGGGGUCUAAAACGACCUGAAUAUUUCAGAUCAAA
RNA 2: GGGAAUGGAUCCACAUCUACGAAUUCGUUUUUGAUCUGAAAUAUUCAGAACUGCAGAUCGGAAGAGCACACGU
B25: target 1 insU 3' of 14,insC 3' of 5 (mixed)
RNA 1: CACCCGUGCAAAAAUGCAGGGGUCUAAAACUGAGCGGAUAACCUCUCUAUGG
RNA 2: GGGAAUGGAUCCACAUCUACGAAUUCGUACCAUAGAGAUGGUUAUCCGCCUCACCGAGAUCGGAAGAGCACACGU
B26: target 1 U10G,A18U (mixed)
RNA 1: CACCCGUGCAAAAAUGCAGGGGUCUAAAACUGAGCGGAUAACCUCUCUAUGG
RNA 2: GGGAAUGGAUCCACAUCUACGAAUUCGUACCAUUGAGAGGUGAUCCGCUCACCGAGAUCGGAAGAGCACACGU
B27: target 1 C6U,U8G (mixed)
RNA 1: CACCCGUGCAAAAAUGCAGGGGUCUAAAACUGAGCGGAUAACCUCUCUAUGG
RNA 2: GGGAAUGGAUCCACAUCUACGAAUUCGUACCAUAGAGAGGUUAGCUGCUCACCGAGAUCGGAAGAGCACACGU

In the data set the target is T1, EsCas13d, nuclease-dead. The data set is described as follows: crRNA (strand 1, pre-loaded); Mg2+; 40 mM Tris-HCl pH 7.5, 150 mM NaCl, 6 mM MgCl2, 1 mM DTT, 0.1% Tween-20, 0.2 mg/ml BSA; 25 C; 10 min per concentration, then washed. As to conditions: tags: His6-TwinStrep-SUMO cleaved; N-terminal SNAP kept (SNAP-Surface 488); label: 3' end held by stalled T7 RNA polymerase.
For B1, the Kd is approximately 100 nM. As for B2, binding was characterised by a dissociation constant (Kd) of 60 ± 12 nM. On to B3, for which binding was characterised by a dissociation constant (Kd) of 49.5 ± 7.5 nM. The same measure for B4: 33.5 ± 6 nM. The same measure for B5: 31 ± 10 nM; for B6: 30.5 ± 5 nM; for B7: 13.6 ± 1.9 nM.

In turn, B8 yielded a Kd of 102 ± 21 nM. Then B9, with 73.5 ± 9.5 nM. Then B10, with 89 ± 23.5 nM. As to B11, the Kd is 24.1 ± 3.15 nM. The same measure for B12: 13.8 ± 2 nM.

On to B13, for which binding was put at a Kd of 68 ± 15 nM. This Kd lies about 4.9-fold higher than the previous one. In turn, B14 had a Kd of 66.5 ± 15.5 nM. The same measure for B15: 35 ± 6 nM; for B16: 44 ± 6 nM; for B17: 65.5 ± 13.5 nM. Then B18, with 25.1 ± 5.2 nM; and B19, with 47.6 ± 10.6 nM. The same measure for B20: 25.9 ± 5.5 nM; for B21: 36.2 ± 4.1 nM; for B22: 7.7 ± 0.65 nM. B23 registered an equilibrium dissociation constant (Kd) of 14.8 ± 1.45 nM. This Kd is about 1.9-fold higher than that of the molecule before.

Molecule B24 displayed a Kd of 38.5 ± 4 nM. In turn, B25 came in with an equilibrium dissociation constant (Kd) of approximately 60 nM. Then B26, with 57 ± 9 nM. The same measure for B27: 11 ± 0.5 nM.
